Numbering of substitutions follows the chain as printed.

To fix the notation:
T1: Avena sativa phytochrome A, full-length wild type (Avena sativa, UniProt P06593 1-1129, phycocyanobilin chromophore assembled (chromophore-binding site C322))
T1 construct: Avena sativa (oat) phytochrome A, full-length gene AsPHYA; 1129 residues by the printed construct limits (66-1129aa); Used as Pr (far-red irradiated) and Pfr (red irradiated) forms; also called AsphyA; FL-AsphyA; source: phycocyanobilin added in vitro
T1 sequence (looked up): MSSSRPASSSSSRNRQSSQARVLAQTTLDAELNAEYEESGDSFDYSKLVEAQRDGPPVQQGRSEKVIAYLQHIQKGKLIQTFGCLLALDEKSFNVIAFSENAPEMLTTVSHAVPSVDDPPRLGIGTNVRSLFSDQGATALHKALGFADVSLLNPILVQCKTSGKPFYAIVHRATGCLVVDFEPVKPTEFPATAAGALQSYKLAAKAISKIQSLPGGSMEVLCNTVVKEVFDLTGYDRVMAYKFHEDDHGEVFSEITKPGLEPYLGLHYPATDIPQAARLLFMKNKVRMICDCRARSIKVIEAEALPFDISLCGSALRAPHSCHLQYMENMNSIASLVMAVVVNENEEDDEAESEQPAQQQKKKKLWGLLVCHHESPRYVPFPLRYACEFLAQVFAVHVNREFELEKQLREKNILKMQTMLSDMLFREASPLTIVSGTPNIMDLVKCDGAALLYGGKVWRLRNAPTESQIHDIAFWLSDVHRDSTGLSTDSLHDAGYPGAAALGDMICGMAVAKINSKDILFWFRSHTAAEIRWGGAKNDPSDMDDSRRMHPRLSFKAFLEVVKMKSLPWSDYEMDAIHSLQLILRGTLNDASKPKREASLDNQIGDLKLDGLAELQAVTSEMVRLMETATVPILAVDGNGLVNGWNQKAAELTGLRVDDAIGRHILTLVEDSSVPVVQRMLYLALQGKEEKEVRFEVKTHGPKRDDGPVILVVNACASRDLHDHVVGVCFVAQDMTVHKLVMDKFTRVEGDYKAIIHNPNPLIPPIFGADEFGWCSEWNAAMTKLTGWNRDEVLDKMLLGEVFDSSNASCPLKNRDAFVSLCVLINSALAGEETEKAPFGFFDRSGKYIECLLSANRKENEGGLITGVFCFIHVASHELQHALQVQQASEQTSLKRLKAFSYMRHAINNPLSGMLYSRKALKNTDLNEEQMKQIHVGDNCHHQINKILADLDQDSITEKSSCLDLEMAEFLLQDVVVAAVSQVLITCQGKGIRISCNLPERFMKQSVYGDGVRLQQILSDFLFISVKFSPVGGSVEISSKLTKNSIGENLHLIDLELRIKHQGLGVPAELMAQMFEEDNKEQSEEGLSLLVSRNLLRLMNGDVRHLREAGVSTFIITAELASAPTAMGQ

T2: AsphyA D422R, full length (Avena sativa, UniProt P06593 1-1129, D422R, phycocyanobilin chromophore assembled)
T2 construct: Avena sativa phytochrome A, full length, with D422R; source: phycocyanobilin added in vitro
T2 sequence (looked up): T1 sequence (looked up) with D422R

B1: GST/strep-fused FHL (natural protein, UniProt A8MR65 1-201, looked up)
chain: MDDADKSCSPSLDHSDINDPMIVAVESLDTSKKRKLHAEESDLLPLPKHFCSEHQASLVNSSCPSSVIDYAECSYAMENTKTSDEASSSASFTGPSLYMFKDSIYSTGSSSSGYAATSSIEQCFSKVDHKTQEDTQDFTHMEFIYHDSEFAVEDLQEVLNPVESYILSSARWSVSNQDSKEATTKPTIDQEFEQYFSTLMM
notes: FHL, which with FHY1 takes part in the nuclear localization of phyA; not shown: GST, N-terminal, kept
B2: GST/strep-fused PIF3 (natural protein, UniProt O80536 1-524, looked up)
chain: MPLFELFRLTKAKLESAQDRNPSPPVDEVVELVWENGQISTQSQSSRSRNIPPPQANSSRAREIGNGSKTTMVDEIPMSVPSLMTGLSQDDDFVPWLNHHPSLDGYCSDFLRDVSSPVTVNEQESDMAVNQTAFPLFQRRKDGNESAPAASSSQYNGFQSHSLYGSDRARDLPSQQTNPDRFTQTQEPLITSNKPSLVNFSHFLRPATFAKTTNNNLHDTKEKSPQSPPNVFQTRVLGAKDSEDKVLNESVASATPKDNQKACLISEDSCRKDQESEKAVVCSSVGSGNSLDGPSESPSLSLKRKHSNIQDIDCHSEDVEEESGDGRKEAGPSRTGLGSKRSRSAEVHNLSERRRRDRINEKMRALQELIPNCNKVDKASMLDEAIEYLKSLQLQVQIMSMASGYYLPPAVMFPPGMGHYPAAAAAMAMGMGMPYAMGLPDLSRGGSSVNHGPQFQVSGMQQQPVAMGIPRVSGGGIFAGSSTIGNGSTRDLSGSKDQTTTNNNSNLKPIKRKQGSSDQFCGSS
notes: Probably Arabidopsis PIF3, as PIF1 and PIF4 are called Arabidopsis; not shown: GST, N-terminal, kept
B3: GST/strep-fused FHY1 (far-red elongated hypocotyl 1) (natural protein, UniProt Q8S4Q6 1-202, looked up)
chain: MPEVEVDNNNEKPSEINSFHHMIISSSKNVLKMEEVEVSKKRKFQTDQSDELSLLPLSKHTCFANVACSENTNGNSEIDTEYSMSSYVNSTTSMECNNDIEMKEESSGSCGEDKMISFESHLDYIYGTQNLEDFSEKVIENILYLDEQEEEEEDAKGCSSNAAKFVLSSGRWTVNQDDSTLHETKKPTIDQEFEQYFSTLML
notes: FHY1 (far-red elongated hypocotyl 1); not shown: GST, N-terminal, kept

For the first experiment, the target named is T1, Avena sativa phytochrome A, full-length …. In words: pull-down; GST/strep-fused interacting protein (1.0 μg) held on glutathione resin, phytochrome (1.0 μg) in solution, Pr and Pfr forms both tested; 60 min at 4 °C in pull-down buffer (100 mM Tris-HCl pH 7.8, 1 mM EDTA, 150 mM NaCl, 100 μg/ml BSA); western blot with oat22 and anti-GST. The conditions noted are these: both partners purified.
For the molecule B1, the binding result is “binds”.
As to B2, the binding result was “binds”.
On to B3, for which the binding result is given as “binds”.

The next experiment concerns the target T2, AsphyA D422R, full length. The experiment is described as above. The conditions noted are these: both partners purified.
For B1, the binding result is listed as “binds”.
Take B2: the binding result is “binds”.
Same read-out and setting: for B3 the value was “binds”.
